Key:
[1] = molecular target: T1, CEACAM6 (Homo sapiens, UniProt P40199); assay: Western blot / flow cytometry binding after PNGase or Tunicamycin treatment; details: for binding to the antigen band after PNGase treatment: Western blot, PC-9 lysate, N-glycans removed
T1 construct: 20 μg of PC-9 membrane protein extract was first denatured; endogenous in cells; host or cells: PC-9 cells
T1 sequence (P40199 35-320): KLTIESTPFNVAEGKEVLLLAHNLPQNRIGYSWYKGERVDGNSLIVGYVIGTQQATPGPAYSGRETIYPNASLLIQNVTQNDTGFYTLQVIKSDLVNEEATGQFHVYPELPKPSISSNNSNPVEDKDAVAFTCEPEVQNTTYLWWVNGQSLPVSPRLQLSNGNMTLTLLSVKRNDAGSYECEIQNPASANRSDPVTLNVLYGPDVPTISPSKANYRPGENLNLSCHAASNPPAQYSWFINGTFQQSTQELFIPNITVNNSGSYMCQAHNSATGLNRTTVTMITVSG
Description: Membrane proteins were extracted from PC-9 cell pellets using the Membrane Protein Extraction Kit (BioVision, USA). Briefly, cell pellets of 5E7 cells were resuspended in 1 mL of Homogenize Buffer and cell membranes broken in a dounce homogenizer. This was transferred into an Eppendorf tube and centrifuged at 700×g for 10 min at 4° C. to remove cell debris. The supernatant was transferred to a new Eppendorf tube and centrifuged at 12,000×g for 30 min at 4° C. to pellet the membrane. The membrane was finally resuspended in 500 μl of 1×Cell Lysis Buffer (Cell Signaling Technology, USA) containing protease inhibitors (Pierce ThermoScientific, USA). The membrane protein solution was clarified with by centrifugation at 15,000×g for 5 min at 4° C., to remove any insoluble proteins. Protein was quantified using the Pierce […] Protein Assay Reagent.
PC-9 membrane protein extracts, or IP products were denatured by in protein loading dye containing SDS at a final concentration of 1%, and heated at 95° C. for 5 min. The sample was then loaded into pre-cast gradient gel (NuPAGE 4-12% gradient gel, Invitrogen), and separated by SDS-PAGE running MOPS Running Buffer (NuPAGE Invitrogen, USA). After gel electrophoresis, the resolved proteins were transferred onto a polyvinylidene fluoride (PVDF) membrane (BioRad, USA) in a transfer buffer containing 20% methanol, 10% Tris-Glycine in DI water at constant voltage of 110V for 90 min.
The membrane was then blocked with 5% milk prepared in PBS/0.1% Tween-20 (PBS-T) for 30 min at room temperature. The membrane was then washed in PBS-T, followed by overnight incubation of GR6A04 at 2 μg/mL in 2.5% milk at 4° C. Subsequently, the membrane was washed in PBS-T, before incubation with goat anti-mouse secondary antibodies horseradish peroxidase-conjugated (1:10000, Dako) for 1 hour at room temperature. […]
PNGase digestion was carried out according to manufacturer's protocol (New England Biolabs). […] Digested proteins were subsequently analysed by Western blotting as described above. […]

[2] = tested on: NSCLC tissue; assay: IHC staining on NSCLC tissue microarray with adjacent normal (LC 1001 2a)
Description: TMA slides containing FFPE tissues were first heated in an oven at 60° C. for 30 min to remove any solvents. The slides were then dewaxed and re-hydrated through sequential immersion in Histoclear (2×), 100% ethanol (2×), 95% ethanol, 70% ethanol, and finally in DI water.
Heat-induced epitope retrieval was done in a solution containing 10 mM Tris Base, 1 mM EDTA, 0.05% Tween 20 at pH 9.0, and heated at 95° C. for 20 min. The container with the antigen retrieval solution and slides was then removed and allowed to cool to room temperature for an additional 20 min. The slides were then washed in DI water. Endogenous peroxidase activity was then blocked by incubation of the slides with 3% H2O2 in PBS for 30 min at room temperature. The slides were washed in DI water, followed by a blocking step with 10% normal goat serum in PBS for 30 min.
The slides were then incubated with GR6A04 at 5 μg/mL in blocking solution overnight at 4° C. The slides were then washed an incubated with a polymer-based anti-mouse secondary antibody conjugated with HRP (DAKO, USA) for 30 min at room temperature, and developed with the recommended DAB chromogen substrate solution for 2 min, and counterstained with Gill's Hematoxylin solution.
The stained slides were subsequently dehydrated through immersion in 50% ethanol, 70% ethanol, 90% ethanol, 100% ethanol (2×) and Histoclear (2×), before mounting with a glass cover slip. The slides were then imaged with the Zeiss AxioScan Digital Slide Scanner.

[3] = tested on: PC-9 Gefitinib resistant clones; assay: Propidium iodide staining (FL-3) for cytotoxicity of mAb alone; type: cell-based; details: cells incubated with the mAb alone
Description: (§1) Cells were harvested as single cell suspensions using trypsin. 1E5 cells were used per sample, and incubated with 100 μl of mAb culture supernatant for 30 min. Cells were then washed with 1% bovine serum albumin in PBS, and further incubated with 100 μl of goat anti-mouse antibody fluorescein isothiocyanate (FITC)-conjugated (1:500, DAKO, Denmark) for 15 min at 4° C. in the dark. Cells were again washed and resuspended in 200 μL of 1% BSA/PBS for analysis on Guava® easy Cyte 8HT Benchtop Flow Cytometer (Merck Millipore, USA). For interrogation of […] binding, cells were fixed with 4% PFA/PBS (Affymetrix, USA) at room temperature for 10 min, washed in PBS, and permeabilised with 0.1% triton/PBS for 5 min at room temperature, before proceeding with incubation with mAb supernatant/primary antibody. For staining with propidium iodide, PI was added to a final concentration of 5 μg/mL for 5 min just prior to analysis by the flow cytometer.

[4] = tested on: A549; assay: Flow cytometry binding on A549 lung adenocarcinoma; type: cell-based; details: A549 parental, heterogeneous binding
Description: as §1

[5] = tested on: normal cell lines (fibroblasts, endothelial and epithelial cells) and primary PBMCs; assay: Flow cytometry binding on normal cells; type: cell-based
Description: as §1

B1: GR6A04: mouse IgG1, κ anti-CEACAM6 monoclonal antibody, VH SEQ ID NO:1, VL SEQ ID NO:2, binds N-glycosylated CEACAM6 (antibody, V domains shown)
VH: SGPELVKPGASVKMSCKASGNTFTSYVMHWVKQKPGQGLEWIGYINPYNDGTKYNEKFKGKATLTSDKSSSTAYMELSSLTSEDSAVYYCARSTARATPYFYAMDYWGQGTSVTVSS
VL: DILMTQSPSSLAVTAGEKVTMRCKSSQSLLWSVNQNSYLSWYQLKQGQPPKLLLYGASIRESWVPDRFTGSGSGTDFTLTISNVHVEDLAVYYCQHNHGSFLPYTFGGGTKLEIK
modifications: Isolated antibody fragment
[1]; PNGase digestion, Tunicamycin N-glycosylation inhibitor
  binding after PNGase and Tunicamycin treatment: affected
[1]
  binding to the antigen band after PNGase treatment: abolished binding
[1]; listed as GR 6A04
  binding to the antigen band after PNGase treatment: abolished
[2]; LC 1001 2a
  positive staining adenocarcinoma (cores positive/total): 9/18
  positive staining squamous (cores positive/total): 4/27
  staining of paired adjacent normal tissue: did not have any positive staining
[2]; LC 1001 2a, listed as GR 6A04
  staining of paired adjacent normal tissue: negative staining
[2]; focused NSCLC TMA
  positive stained lung adenocarcinoma cores: 50%
  positive stained squamous cell cancer cores: 15%
[3]
  cell cytotoxicity (propidium iodide staining, FL-3): no apparent cell cytotoxicity
[3]; listed as GR 6A04
  cell cytotoxicity (propidium iodide staining, FL-3): no inherent cytotoxity
[4]
  GR6A04+ population (positive binding tail): 15-30%
[5]
  binding on the cell surface of normal cells: < 8%

Source: patent US12227570B2, “Anti-CEACAM6 antibodies and methods of use” (Singapore Health Services PTE LTD, priority 2016, dated 2025)
